Biological target: CD117 (KIT, c-Kit) (UniProt P10721 P10721:26-976)
Assay: flow; HEL cells, room temperature 30 min; no binding to CD117-negative CA46, U937, MDA-MB-468, LNCaP cells
Conditions: tags: endogenous on HEL AML cell line (ATCC) or primary AML marrow cells; label: 5'-Cy3; G4

CD117 (KIT, c-Kit), sequence (P10721 26-976, one chain of several): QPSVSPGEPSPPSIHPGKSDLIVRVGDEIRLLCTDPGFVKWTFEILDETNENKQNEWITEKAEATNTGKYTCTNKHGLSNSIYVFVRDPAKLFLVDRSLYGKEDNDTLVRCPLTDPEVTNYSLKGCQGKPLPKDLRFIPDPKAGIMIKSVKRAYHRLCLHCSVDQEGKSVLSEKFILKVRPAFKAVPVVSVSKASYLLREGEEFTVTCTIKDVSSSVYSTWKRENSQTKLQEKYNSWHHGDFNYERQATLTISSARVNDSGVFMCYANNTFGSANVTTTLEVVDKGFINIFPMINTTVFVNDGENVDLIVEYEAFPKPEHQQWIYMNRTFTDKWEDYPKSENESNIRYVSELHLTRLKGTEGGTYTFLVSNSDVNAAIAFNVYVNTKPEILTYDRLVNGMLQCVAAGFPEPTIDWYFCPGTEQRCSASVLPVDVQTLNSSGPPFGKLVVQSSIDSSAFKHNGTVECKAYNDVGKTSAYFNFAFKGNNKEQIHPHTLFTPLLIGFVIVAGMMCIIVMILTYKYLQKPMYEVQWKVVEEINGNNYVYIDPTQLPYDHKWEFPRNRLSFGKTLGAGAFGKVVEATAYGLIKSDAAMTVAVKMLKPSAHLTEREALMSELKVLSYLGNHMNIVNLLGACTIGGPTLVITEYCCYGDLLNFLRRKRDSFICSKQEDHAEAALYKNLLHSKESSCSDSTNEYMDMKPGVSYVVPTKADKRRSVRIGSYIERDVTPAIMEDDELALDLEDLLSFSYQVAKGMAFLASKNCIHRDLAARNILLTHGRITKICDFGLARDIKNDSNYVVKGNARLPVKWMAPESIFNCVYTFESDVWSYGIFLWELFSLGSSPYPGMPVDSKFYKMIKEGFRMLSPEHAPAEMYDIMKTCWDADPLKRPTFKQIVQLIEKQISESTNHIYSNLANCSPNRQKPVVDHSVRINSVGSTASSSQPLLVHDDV

B1: CD117 aptamer #1F (full length) (ssDNA)
DNA: GAGGCATACCAGCTTATTCAAGGGGCCGGGGCAAGGGGGGGGTACCGTGGTAGGACATAGTAAGTGCAATCTGCGAA
Kd: 6.3 nM
